In IntAct's records for PubMed 31515488:

B1: "N-acyl-aromatic-L-amino acid amidohydrolase (carboxylate-forming)" (Homo sapiens), Q96HD9 (parent)
chain: MCSLPVPREPLRRVAVTGGTHGNEMSGVYLARHWLHAPAELQRASFSAVPVLANPAATSGCRRYVDHDLNRTFTSSFLNSRPTPDDPYEVTRARELNQLLGPKASGQAFDFVLDLHNTTANMGTCLIAKSSHEVFAMHLCRHLQLQYPELSCQVFLYQRSGEESYNLDSVAKNGLGLELGPQPQGVLRADIFSRMRTLVATVLDFIELFNQGTAFPAFEMEAYRPVGVVDFPRTEAGHLAGTVHPQLQDRDFQPLQPGAPIFQMFSGEDLLYEGESTVYPVFINEAAYYEKGVAFVQTEKFTFTVPAMPALTPAPSPAS
B2: Protein mab-21-like 3 (Homo sapiens), Q8N8X9 (parent)
chain: MKYLTVGDLEDCLLNKVDLRRQQISQAVEEVQKVVHHLTTNISNQDIRFQAVPYSDTYNENIKVLAPSQFLVTVPIKGLAGYREAREQHWRYYTLQGTRLPCPLRDPEGLQQWLEVEQFMKSLWQWHETDVNIDGDIVPAKVLLVFRKLVENAVRTCHLSGKVSLLGNRSAVWVAVETSAYQVELELVPAVEIPTTWSKKARWPRCLQRWPSQERVECIKSFGFNLLACSNYHWQLSFLRAEQVLLEQLDEDGGCRRKCFQVMRHLKEDIWCPGNRPVITSHHLQTVLFWTCEKYPHFKDWQVFSKAFLRLVRKLHKCVSQHFLKHYFVRNSNLFQCTNPTELDTVAQKLATFLKNPQIGPP
partner: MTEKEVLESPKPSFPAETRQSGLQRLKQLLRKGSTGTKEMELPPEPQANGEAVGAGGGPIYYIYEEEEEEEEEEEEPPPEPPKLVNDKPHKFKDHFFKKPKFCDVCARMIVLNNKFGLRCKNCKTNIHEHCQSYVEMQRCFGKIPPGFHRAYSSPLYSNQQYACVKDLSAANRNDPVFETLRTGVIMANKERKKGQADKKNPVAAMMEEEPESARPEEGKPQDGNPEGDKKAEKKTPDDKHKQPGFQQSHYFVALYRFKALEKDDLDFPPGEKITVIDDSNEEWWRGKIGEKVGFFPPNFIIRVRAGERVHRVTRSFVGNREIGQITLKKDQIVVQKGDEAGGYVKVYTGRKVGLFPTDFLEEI
B3: Four and a half LIM domains protein 2 (Homo sapiens), Q14192 (parent)
chain: MTERFDCHHCNESLFGKKYILREESPYCVVCFETLFANTCEECGKPIGCDCKDLSYKDRHWHEACFHCSQCRNSLVDKPFAAKEDQLLCTDCYSNEYSSKCQECKKTIMPGTRKMEYKGSSWHETCFICHRCQQPIGTKSFIPKDNQNFCVPCYEKQHAMQCVQCKKPITTGGVTYREQPWHKECFVCTACRKQLSGQRFTARDDFAYCLNCFCDLYAKKCAGCTNPISGLGGTKYISFEERQWHNDCFNCKKCSLSLVGRGFLTERDDILCPDCGKDI
B4: Cdc42 effector protein 4 (Homo sapiens), Q9H3Q1 (parent)
chain: MPILKQLVSSSVHSKRRSRADLTAEMISAPLGDFRHTMHVGRAGDAFGDTSFLNSKAGEPDGESLDEQPSSSSSKRSLLSRKFRGSKRSQSVTRGEREQRDMLGSLRDSALFVKNAMSLPQLNEKEAAEKGTSKLPKSLSSSPVKKANDGEGGDEEAGTEEAVPRRNGAAGPHSPDPLLDEQAFGDLTDLPVVPKATYGLKHAESIMSFHIDLGPSMLGDVLSIMDKEEWDPEEGEGGYHGDEGAAGTITQAPPYAVAAPPLARQEGKAGPDLPSLPSHALEDEGWAAAAPSPGSARSMGSHTTRDSSSLSSCTSGILEERSPAFRGPDRARAAVSRQPDKEFSFMDEEEEDEIRV
B5: Origin recognition complex subunit 6 (Homo sapiens), Q9Y5N6 (parent)
chain: MGSELIGRLAPRLGLAEPDMLRKAEEYLRLSRVKCVGLSARTTETSSAVMCLDLAASWMKCPLDRAYLIKLSGLNKETYQSCLKSFECLLGLNSNIGIRDLAVQFSCIEAVNMASKILKSYESSLPQTQQVDLDLSRPLFTSAALLSACKILKLKVDKNKMVATSGVKKAIFDRLCKQLEKIGQQVDREPGDVATPPRKRKKIVVEAPAKEMEKVEEMPHKPQKDEDLTQDYEEWKRKILENAASAQKATAE
partner: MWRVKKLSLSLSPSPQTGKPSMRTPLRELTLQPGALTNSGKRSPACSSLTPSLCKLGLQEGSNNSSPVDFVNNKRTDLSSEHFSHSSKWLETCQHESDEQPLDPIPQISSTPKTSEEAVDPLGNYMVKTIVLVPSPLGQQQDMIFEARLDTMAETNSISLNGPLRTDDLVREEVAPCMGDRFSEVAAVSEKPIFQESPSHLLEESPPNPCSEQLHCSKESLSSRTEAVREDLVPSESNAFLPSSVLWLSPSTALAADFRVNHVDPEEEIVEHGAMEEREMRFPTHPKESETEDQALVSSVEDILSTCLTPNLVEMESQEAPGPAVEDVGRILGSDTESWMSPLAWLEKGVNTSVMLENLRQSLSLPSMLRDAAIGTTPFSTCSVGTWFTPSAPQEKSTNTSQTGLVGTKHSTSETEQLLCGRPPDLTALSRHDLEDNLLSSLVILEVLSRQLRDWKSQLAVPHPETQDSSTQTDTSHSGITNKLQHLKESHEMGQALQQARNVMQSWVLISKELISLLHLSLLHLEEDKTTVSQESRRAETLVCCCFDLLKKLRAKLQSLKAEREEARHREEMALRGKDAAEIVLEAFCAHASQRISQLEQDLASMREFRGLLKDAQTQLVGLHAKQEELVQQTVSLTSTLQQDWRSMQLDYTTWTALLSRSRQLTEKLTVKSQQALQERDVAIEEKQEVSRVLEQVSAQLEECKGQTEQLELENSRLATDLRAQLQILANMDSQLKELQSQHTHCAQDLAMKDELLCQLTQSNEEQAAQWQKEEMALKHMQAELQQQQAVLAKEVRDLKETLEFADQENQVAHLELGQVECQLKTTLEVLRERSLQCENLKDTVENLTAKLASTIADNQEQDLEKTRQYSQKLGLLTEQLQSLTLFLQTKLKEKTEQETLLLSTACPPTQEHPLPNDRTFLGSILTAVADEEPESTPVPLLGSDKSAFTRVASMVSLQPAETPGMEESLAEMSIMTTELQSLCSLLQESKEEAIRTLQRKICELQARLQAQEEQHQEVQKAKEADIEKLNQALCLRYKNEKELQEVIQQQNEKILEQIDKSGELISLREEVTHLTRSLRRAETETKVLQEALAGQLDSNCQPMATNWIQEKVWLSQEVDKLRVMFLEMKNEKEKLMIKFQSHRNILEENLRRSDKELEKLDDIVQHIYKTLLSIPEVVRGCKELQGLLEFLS
B6: RUN and FYVE domain-containing protein 1 (Homo sapiens), Q96T51-2 (parent)
chain: MMEERANLMHMMKLSIKVLLQSALSLGRSLDADHAPLQQFFVVMEHCLKHGLKVKKSFIGQNKSFFGPLELVEKLCPEASDIATSVRNLPELKTAVGRGRAWLYLALMQKKLADYLKVLIDNKHLLSEFYEPEALMMEEEGMVIVGLLVGLNVLDANLCLKGEDLDSQVGVIDFSLYLKDVQDLDGGKEHERITDVLDQKNYVEELNRHLSCTVGDLQTKIDGLEKTNSKLQEELSAATDRICSLQEEQQQLREQNELIRERSEKSVEITKQDTKVELETYKQTRQGLDEMYSDVWKQLKEEKKVRLELEKELELQIGMKTEMEIAMKLLEKDTHEKQDTLVALRQQLEEVKAINLQMFHKAQNAESSLQQKNEAITSFEGKTNQVMSSMKQMEERLQHSERARQGAEERSHKLQQELGGRIGALQLQLSQLHEQCSSLEKELKSEKEQRQALQRELQHEKDTSSLLRMELQQVEGLKKELRELQDEKAELQKICEEQEQALQEMGLHLSQSKLKMEDIKEVNQALKGHAWLKDDEATHCRQCEKEFSISRRKHHCRNCGHIFCNTCSSNELALPSYPKPVRVCDSCHTLLLQRCSSTAS
partner: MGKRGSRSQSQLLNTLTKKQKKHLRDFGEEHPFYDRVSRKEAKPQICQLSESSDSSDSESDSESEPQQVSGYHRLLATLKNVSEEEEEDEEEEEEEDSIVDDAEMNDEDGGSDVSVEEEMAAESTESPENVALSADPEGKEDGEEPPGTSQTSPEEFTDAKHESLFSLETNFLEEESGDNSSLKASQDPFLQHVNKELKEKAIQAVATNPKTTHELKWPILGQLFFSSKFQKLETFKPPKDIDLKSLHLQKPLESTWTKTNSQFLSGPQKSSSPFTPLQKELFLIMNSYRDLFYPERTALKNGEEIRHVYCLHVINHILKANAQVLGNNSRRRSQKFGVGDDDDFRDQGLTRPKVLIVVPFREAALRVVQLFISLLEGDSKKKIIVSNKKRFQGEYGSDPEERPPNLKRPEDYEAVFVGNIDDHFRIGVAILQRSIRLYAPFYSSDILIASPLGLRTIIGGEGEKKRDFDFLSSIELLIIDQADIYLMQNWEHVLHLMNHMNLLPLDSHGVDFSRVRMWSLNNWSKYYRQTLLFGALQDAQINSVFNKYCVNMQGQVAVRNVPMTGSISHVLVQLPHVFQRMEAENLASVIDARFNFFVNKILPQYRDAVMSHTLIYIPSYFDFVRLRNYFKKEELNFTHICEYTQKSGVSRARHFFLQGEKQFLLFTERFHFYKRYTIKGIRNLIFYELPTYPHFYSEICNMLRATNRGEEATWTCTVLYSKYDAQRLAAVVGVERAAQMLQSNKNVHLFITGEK
B7: Keratin-associated protein 3-2 (Homo sapiens), Q9BYR7 (parent)
chain: MDCCASRSCSVPTGPATTICSSDKSCRCGVCLPSTCPHTVWLLEPICCDNCPPPCHIPQPCVPTCFLLNSCQPTPGLETLNLTTFTQPCCEPCLPRGC
partner: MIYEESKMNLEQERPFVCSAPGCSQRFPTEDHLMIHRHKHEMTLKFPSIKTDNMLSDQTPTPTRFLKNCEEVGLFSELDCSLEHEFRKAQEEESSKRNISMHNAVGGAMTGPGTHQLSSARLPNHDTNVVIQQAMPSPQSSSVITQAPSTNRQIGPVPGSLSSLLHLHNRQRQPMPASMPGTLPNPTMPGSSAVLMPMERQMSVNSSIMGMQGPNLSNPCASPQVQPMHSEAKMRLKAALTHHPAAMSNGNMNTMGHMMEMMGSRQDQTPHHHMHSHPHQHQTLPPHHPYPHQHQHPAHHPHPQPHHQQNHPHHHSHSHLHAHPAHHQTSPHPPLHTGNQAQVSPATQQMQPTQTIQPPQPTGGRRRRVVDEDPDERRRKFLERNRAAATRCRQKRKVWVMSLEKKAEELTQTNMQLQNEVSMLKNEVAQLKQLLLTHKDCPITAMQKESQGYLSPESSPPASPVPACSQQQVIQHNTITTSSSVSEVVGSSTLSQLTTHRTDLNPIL
B8: Ubiquitin-like protein 4B (Homo sapiens), Q8N7F7 (parent)
chain: MFLTVKLLLGQRCSLKVSGQESVATLKRLVSRRLKVPEEQQHLLFRGQLLEDDKHLSDYCIGPNASINVIMQPLEKMALKEAHQPQTQPLWHQLGLVLAKHFEPQDAKAVLQLLRQEHEERLQKISLEHLEQLAQYLLAEEPHVEPAGERELEAKARPQSSCDMEEKEEAAADQ
partner: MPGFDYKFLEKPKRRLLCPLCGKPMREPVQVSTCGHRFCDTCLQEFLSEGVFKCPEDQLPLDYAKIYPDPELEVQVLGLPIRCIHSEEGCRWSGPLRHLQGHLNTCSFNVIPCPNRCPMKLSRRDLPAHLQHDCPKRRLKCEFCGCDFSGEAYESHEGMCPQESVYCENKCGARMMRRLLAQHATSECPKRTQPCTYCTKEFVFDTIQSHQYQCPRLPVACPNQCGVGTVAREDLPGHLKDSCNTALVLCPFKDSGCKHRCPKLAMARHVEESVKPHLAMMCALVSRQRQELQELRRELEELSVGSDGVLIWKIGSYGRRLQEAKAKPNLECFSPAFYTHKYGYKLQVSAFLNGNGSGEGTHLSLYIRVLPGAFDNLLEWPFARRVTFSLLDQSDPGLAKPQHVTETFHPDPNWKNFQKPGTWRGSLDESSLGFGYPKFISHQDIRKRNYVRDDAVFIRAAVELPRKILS

Variants of: B1
Settings: with gors2_human GORASP2, Q9H8Y8

Row | effect of a mutation on the interaction | Variant
1 | with no effect | R8Q

Variants of: B2
Settings: with stac3_human STAC3, Q96MF2

Row | effect of a mutation on the interaction | Variant
2 | with no effect | T338A

Variants of: B3
Settings: with gbg12_human GNG12, Q9UBI6
Chain of gbg12_human GNG12, Q9UBI6 (Q9UBI6 whole entry): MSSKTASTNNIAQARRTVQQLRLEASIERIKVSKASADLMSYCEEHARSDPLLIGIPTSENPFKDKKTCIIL

Row | effect of a mutation on the interaction | Variant
3 | with no effect | R177Q

Variants of: B3
Settings: with inca1_human INCA1, Q0VD86
Chain of inca1_human INCA1, Q0VD86 (Q0VD86 whole entry): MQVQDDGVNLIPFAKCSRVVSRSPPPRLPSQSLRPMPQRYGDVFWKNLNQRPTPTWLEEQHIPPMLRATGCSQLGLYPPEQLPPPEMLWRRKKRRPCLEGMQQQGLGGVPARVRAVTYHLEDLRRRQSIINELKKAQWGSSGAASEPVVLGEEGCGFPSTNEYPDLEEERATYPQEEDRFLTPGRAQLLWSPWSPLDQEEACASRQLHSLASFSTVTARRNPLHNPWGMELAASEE

Row | effect of a mutation on the interaction | Variant
4 | with no effect | A37S
5 | with no effect | N95K

Variants of: B4
Settings: with fam9b_human FAM9B

Row | effect of a mutation on the interaction | Variant
6 | with no effect | M102V

Variants of: B5
Settings: with spag5_human SPAG5, Q96R06

Row | effect of a mutation on the interaction | Variant
7 | with no effect | K201N

Variants of: B6
Settings: with utp25_human UTP25, Q68CQ4

Row | effect of a mutation on the interaction | Variant
8 | with no effect | C159F

Variants of: B7
Settings: with creb5_human CREB5, Q02930

Row | effect of a mutation on the interaction | Variant
9 | with no effect | S8G
10 | with no effect | R27C

Variants of: B8
Settings: with traf4_human TRAF4, Q9BUZ4

Row | effect of a mutation on the interaction | Variant
11 | disrupting interaction strength | R121H
